Measurements taken from the supplement of paper PMC9112550, “Optimization of the antimicrobial peptide Bac7 by deep mutational scanning” (BMC Biology, 2022).

System: Escherichia coli TOP10
Assay: shrunken log2 fold change of peptide-encoding DNA abundance (4.5 h post-induction vs induction); higher = less antimicrobial activity (less host growth inhibition)
Details: time post-induction: 4.5 h; library: site-saturation at positions 5, 18, 19, 20
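Further: peptides expressed intracellularly from a pBAD plasmid library in pooled LB shake-flask culture, induced with 0.3% L-arabinose, DNA abundance read by NGS, three biological replicates, DESeq2 with apeglm shrinkage.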

Sequence	shrunken log2 fold change
RRIRERPPRLPRPRPRPVRKPRP	-0.0457
RRIRKRPPRLPRPRPRPSMDPRP	0.0069
RRIRSRPPRLPRPRPRPTPDPRP	0.441
RRIRGRPPRLPRPRPRPHALPRP	0.0818
RRIRQRPPRLPRPRPRPFAEPRP	-0.00183
RRIRVRPPRLPRPRPRPWHPPRP	-0.0956
RRIRYRPPRLPRPRPRPAGAPRP	0.421
RRIRPRPPRLPRPRPRPWHLPRP	-0.233
RRIRIRPPRLPRPRPRPRVNPRP	-0.603
RRIRYRPPRLPRPRPRPKHPPRP	-0.155
RRIRKRPPRLPRPRPRPQFIPRP	-0.0823
RRIRGRPPRLPRPRPRPCQVPRP	0.224
RRIRERPPRLPRPRPRPRYTPRP	-0.244
RRIRVRPPRLPRPRPRPYCLPRP	-0.564
RRIRHRPPRLPRPRPRPIDWPRP	0.0599
RRIRVRPPRLPRPRPRPNRQPRP	-0.326
RRIRLRPPRLPRPRPRPIGGPRP	0.0938
RRIRSRPPRLPRPRPRPPFIPRP	-0.252
RRIRLRPPRLPRPRPRPQYEPRP	-0.166
RRIRVRPPRLPRPRPRPTNLPRP	0.0684
RRIRCRPPRLPRPRPRPITLPRP	-0.441
RRIRSRPPRLPRPRPRPQNRPRP	-0.106
RRIRDRPPRLPRPRPRPQYDPRP	-0.0265
RRIRGRPPRLPRPRPRPSGGPRP	0.391
RRIRNRPPRLPRPRPRPLDMPRP	-0.0766

Sequence	shrunken log2 fold change
RRIRVRPPRLPRPRPRPLTMPRP	-0.319
RRIRHRPPRLPRPRPRPFPYPRP	-0.0859
RRIRGRPPRLPRPRPRPIYRPRP	0.2
RRIRGRPPRLPRPRPRPQRGPRP	0.119
RRIRNRPPRLPRPRPRPSGAPRP	-0.0216
RRIRGRPPRLPRPRPRPRLSPRP	0.313
RRIRFRPPRLPRPRPRPAHQPRP	-0.15
RRIRRRPPRLPRPRPRPFCLPRP	0.194
RRIRIRPPRLPRPRPRPQMYPRP	-0.211
RRIRGRPPRLPRPRPRPSSHPRP	-0.0172
RRIRDRPPRLPRPRPRPPHQPRP	-0.022
RRIRPRPPRLPRPRPRPCYCPRP	-0.722
RRIRLRPPRLPRPRPRPNKGPRP	-0.254
RRIRNRPPRLPRPRPRPIAMPRP	-0.0835
RRIRSRPPRLPRPRPRPNKYPRP	-0.653
RRIRVRPPRLPRPRPRPEFNPRP	0.203
RRIRSRPPRLPRPRPRPGKGPRP	-0.0961
RRIRERPPRLPRPRPRPEDKPRP	-0.034
RRIRERPPRLPRPRPRPYDMPRP	-0.222
RRIRERPPRLPRPRPRPPAPPRP	0.569
RRIRNRPPRLPRPRPRPQGDPRP	4.25
RRIRSRPPRLPRPRPRPEELPRP	0.176
RRIRNRPPRLPRPRPRPKQRPRP	0.432
RRIRARPPRLPRPRPRPMCKPRP	0.0809
RRIRIRPPRLPRPRPRPCTLPRP	-1.08

Sequence	shrunken log2 fold change
RRIRSRPPRLPRPRPRPGKFPRP	-0.111
RRIRERPPRLPRPRPRPWPYPRP	0.00489
RRIRYRPPRLPRPRPRPWWFPRP	-0.195
RRIRMRPPRLPRPRPRPIHMPRP	-0.221
RRIRERPPRLPRPRPRPFSIPRP	0.00587
RRIRHRPPRLPRPRPRPKPTPRP	0.0736
RRIRRRPPRLPRPRPRPSAKPRP	0.0742
RRIRSRPPRLPRPRPRPIQDPRP	0.00805
RRIRTRPPRLPRPRPRPLSVPRP	-0.0398
RRIRQRPPRLPRPRPRPGWIPRP	0.179
RRIRSRPPRLPRPRPRPSLLPRP	-0.146
RRIRTRPPRLPRPRPRPQEPPRP	-0.0583
RRIRIRPPRLPRPRPRPSSFPRP	-0.711
RRIRQRPPRLPRPRPRPYWQPRP	-0.411
RRIRKRPPRLPRPRPRPKVNPRP	0.0581
RRIRYRPPRLPRPRPRPSDPPRP	-0.374
RRIRQRPPRLPRPRPRPHVAPRP	-0.0333
RRIRFRPPRLPRPRPRPTCDPRP	-0.0372
RRIRIRPPRLPRPRPRPTMNPRP	-1.01
RRIRLRPPRLPRPRPRPTQNPRP	0.404
RRIRVRPPRLPRPRPRPLPNPRP	-0.0957
RRIRCRPPRLPRPRPRPLCDPRP	0.54
RRIRVRPPRLPRPRPRPTYQPRP	-0.388
RRIRGRPPRLPRPRPRPIYPPRP	0.119
RRIRMRPPRLPRPRPRPRHGPRP	0.83

Sequence	shrunken log2 fold change
RRIRTRPPRLPRPRPRPAYSPRP	0.0215
RRIRLRPPRLPRPRPRPIATPRP	0.173
RRIRRRPPRLPRPRPRPPHLPRP	0.52
RRIRQRPPRLPRPRPRPQDIPRP	0.0203
RRIRRRPPRLPRPRPRPLVMPRP	0.164
RRIRYRPPRLPRPRPRPVERPRP	0.00806
RRIRARPPRLPRPRPRPWCFPRP	0.0976
RRIRHRPPRLPRPRPRPSDQPRP	0.0718
RRIRARPPRLPRPRPRPWAQPRP	0.0167
RRIRLRPPRLPRPRPRPHNFPRP	-0.115
RRIRERPPRLPRPRPRPPCLPRP	-0.579
RRIRLRPPRLPRPRPRPKFLPRP	-0.173
RRIRARPPRLPRPRPRPWRNPRP	-0.0929
RRIRSRPPRLPRPRPRPEITPRP	-0.13
RRIRKRPPRLPRPRPRPQGFPRP	-0.00783
RRIRARPPRLPRPRPRPPDFPRP	0.708
RRIRARPPRLPRPRPRPDQFPRP	0.389
RRIRARPPRLPRPRPRPDCCPRP	0.172
RRIRVRPPRLPRPRPRPHEVPRP	-0.0408
RRIRLRPPRLPRPRPRPYVEPRP	-0.322
RRIRARPPRLPRPRPRPYEYPRP	-0.04
RRIRCRPPRLPRPRPRPHVAPRP	-0.0172
RRIRKRPPRLPRPRPRPICPPRP	-0.122
RRIRIRPPRLPRPRPRPQIEPRP	-0.0116
RRIRSRPPRLPRPRPRPCSPPRP	0.149

Sequence	shrunken log2 fold change
RRIRTRPPRLPRPRPRPVTYPRP	0.0141
RRIRYRPPRLPRPRPRPYMGPRP	-0.019
RRIRVRPPRLPRPRPRPRIHPRP	-0.219
RRIRKRPPRLPRPRPRPMYYPRP	-0.148
RRIRKRPPRLPRPRPRPMQNPRP	0.282
RRIRDRPPRLPRPRPRPTFMPRP	-0.07
RRIRVRPPRLPRPRPRPQAKPRP	0.0434
RRIRNRPPRLPRPRPRPHANPRP	0.0684
RRIRVRPPRLPRPRPRPARNPRP	0.414
RRIRVRPPRLPRPRPRPYMKPRP	-1.04
RRIRIRPPRLPRPRPRPDKRPRP	-0.0405
RRIRFRPPRLPRPRPRPYICPRP	-0.4
RRIRNRPPRLPRPRPRPSNQPRP	-0.299
RRIRTRPPRLPRPRPRPQLFPRP	-0.112
RRIRPRPPRLPRPRPRPGCQPRP	-0.0622
RRIRGRPPRLPRPRPRPPWHPRP	0.396
RRIRQRPPRLPRPRPRPCTVPRP	-0.521
RRIRKRPPRLPRPRPRPKENPRP	0.189
RRIRMRPPRLPRPRPRPINGPRP	0.0854
RRIRWRPPRLPRPRPRPDSYPRP	0.00709
RRIRVRPPRLPRPRPRPIIDPRP	0.0493
RRIRWRPPRLPRPRPRPLDAPRP	0.354
RRIRYRPPRLPRPRPRPQWGPRP	0.122
RRIRLRPPRLPRPRPRPFLMPRP	-0.551
RRIRFRPPRLPRPRPRPHPRPRP	0.5

Sequence	shrunken log2 fold change
RRIRHRPPRLPRPRPRPYCFPRP	-0.792
RRIRTRPPRLPRPRPRPFFQPRP	0.0474
RRIRPRPPRLPRPRPRPWACPRP	-0.00713
RRIRWRPPRLPRPRPRPQERPRP	-0.0207
RRIRYRPPRLPRPRPRPPTSPRP	-0.0241
RRIRSRPPRLPRPRPRPICRPRP	-0.0192
RRIRLRPPRLPRPRPRPMASPRP	0.0148
RRIRERPPRLPRPRPRPVLEPRP	-0.0875
RRIRMRPPRLPRPRPRPPFMPRP	0.296
RRIRGRPPRLPRPRPRPNKAPRP	0.454
RRIRERPPRLPRPRPRPIHAPRP	0.0259
RRIRGRPPRLPRPRPRPCQSPRP	0.108
RRIRERPPRLPRPRPRPGSWPRP	2.45
RRIRLRPPRLPRPRPRPPTKPRP	0.288
RRIRKRPPRLPRPRPRPRTMPRP	0.179
RRIRSRPPRLPRPRPRPNQKPRP	-0.162
RRIRPRPPRLPRPRPRPWNRPRP	0.122
RRIRMRPPRLPRPRPRPKMWPRP	0.643
RRIRNRPPRLPRPRPRPQAMPRP	-0.0233
RRIRSRPPRLPRPRPRPGTNPRP	-0.188
RRIRARPPRLPRPRPRPPMRPRP	1.26
RRIRVRPPRLPRPRPRPGENPRP	-0.0226
RRIRWRPPRLPRPRPRPKWRPRP	0.428
RRIRLRPPRLPRPRPRPVLKPRP	0.0956
RRIRLRPPRLPRPRPRPKTIPRP	-0.109
